# Positions count from the first letter of the chain named.
# B1: TmrA^E523QB (catalytically reduced variant of TmrAB) (complex)
# chain 1: MTEDTYSKAFDRALFARILRYVWPYRLQVVLALLFLLVVTLAAAATPLFFKWAIDLALVPTEPRPLAERFHLLLWISLGFLAVRAVHFAATYGETYLIQWVGQRVLFDLRSDLFAKLMRLHPGFYDRNPVGRLMTRVTSDVDAINQFITGGLVGVIADLFTLVGLLGFMLFLSPKLTLVVLLVAPVLLAVTTWVRLGMRSAYREMRLRLARVNAALQENLSGVETIQLFVKEREREEKFDRLNRDLFRAWVEIIRWFALFFPVVGFLGDFAVASLVYYGGGEVVRGAVSLGLLVAFVDYTRQLFQPLQDLSDKFNLFQGAMASAERIFGVLDTEEELKDPEDPTPIRGFRGEVEFRDVWLAYTPKGVEPTEKDWVLKGVSFRVRPGEKVALVGATGAGKTSVVSLIARFYDPQRGCVFLDGVDVRRYRQEELRRHVGIVLQEPFLFSGTVLDNLRLFDPSVPPERVEEVARFLGAHEFILRLPKGYQTVLGERGAGLSTGEKQLLALVRALLASPDILLILDQATASVDSETEKRLQEALYKAMEGRTSLIIAHRLSTIRHVDRILVFRKGRLVEEGSHEELLAKGGYYAALYRLQFQEA
# chain 2: MTGRSAAPLLRRLWPYVGRYRWRYLWAVLAGLVSIFFFVLTPYFLRLAVDAVQAGRGFGVYALAIVASAALSGLLSYAMRRLAVVASRQVEYDLRRDLLHHLLTLDRDFYHKHRVGDLMNRLNTDLSAVREMVGPGILMGSRLSFLVLLAFLSMYAVNARLAFYLTLILPGIFLAMRFLLRLIDRRYREAQEVFDRISTLAQEAFSGIRVVKGYALERRMVAWFQDLNRLYVEKSLALARVEGPLHALLGFLMGFAFLTVLWAGGAMVVRGELSVGELVQFNAYLAQLTWPILGLGWVMALYQRGLTSLRRLFELLDEKPAIRDEDPLPLALEDLSGEVRFEGVGLKRDGRWLLRGLTLTIPEGMTLGITGRTGSGKSLLAALVPRLLDPSEGRVYVGGHEARRIPLAVLRKAVGVAPQEPFLFSETILENIAFGLDEVDRERVEWAARLAGIHEEILAFPKGYETVLGERGITLSGGQRQRVALARALAKRPKILILDDALSAVDAETEARILQGLKTVLGKQTTLLISHRTAALRHADWIIVLDGGRIVEEGTHESLLQAGGLYAEMDRLQKEVEA
# B2: TmrAB (heterodimeric ABC transport complex from Thermus thermophilus, wild type) (complex)
# chain 1: B1 chain 1 with Q523E
# chain 2: B1 chain 2
# Legend:
# [1] = target: T1, macrocyclic peptide CP14, fluorescein-labeled (CP14^F) (N-terminal N-chloroacetyl-D-tyrosine joined by a thioether to a cysteine; fluorescein on the side chain of the C-terminal lysine; C-terminal amide); test: FP; outward-facing, Mg-ATP trapped, detergent-solubilized
# [2] = target: T2, macrocyclic peptide CP12, fluorescein-labeled (CP12^F) (N-terminal N-chloroacetyl-D-tyrosine joined by a thioether to a cysteine; fluorescein on the side chain of the C-terminal lysine; C-terminal amide); test: as above
# [3] = target: T1, macrocyclic peptide CP14, …; test: FP; inward-facing, no Mg-ATP, detergent-solubilized
# [4] = target: T2, macrocyclic peptide CP12, …; test: as above
Binder,Kd [1],Kd [2],Kd [3],Kd [4]
B1,50 nM,350 nM,–,–
B2,–,–,100 nM,140 nM
